Experimental data from US9702869B2, “Assays, antibodies, immunogens and compositions related to 5-FU” (WELLSTAT DIAGNOSTICS, LLC, priority 2011, dated 2017).

Assays:
Type in all cases: binding
[1] = Indirect antibody ELISA on 5-FU-BSA coated plates, competition with 5-FU
Protocol: (§1) In this experiment, antibody capture reagents were 5-FU BSA conjugates modified at the 5-FU position 1 with either 3-carbon or 5-carbon linkers. 5-FU was conjugated to BSA by mixing 1-5C-5-FU-NHS ester with BSA at a challenge ratio of 12:1 (molar ratios of 1-5C-5-FU-NHS to BSA) in a phosphate buffer containing a phosphate buffered saline containing 10.5 mM KH2PO4, 139.5 mM K2HPO4 and 150.6 mM NaCl, =pH 7.7-7.9 (typically pH 7.8) for 1 hour or more incubation at room temperature (typically 1 hour incubation at room temperature). After the incubation, unbound 1-5C-5-FU-NHS ester was removed by 3 buffer exchanges in an AmiconUltra4-30K filter (Millipore, Cat#UFC803024). BSA conjugated with 5-FU (5-FU-BSA) was concentrated and stored in the same phosphate buffer (pH 7.8).
(§2) This indirect antibody ELISA assay 5-FU assay was constructed using either 1-3C-5-FU-BSA or 1-5C-5-FU-BSA as antibody capture reagent and a horseradish perioxidase (HRP) conjugated goat anti-mouse antibody as the antibody detector reagent. The binding of 5-FU antibody was detected with 3,3,5,5-TetraMethylBenzidine (TMB) as the HRP enzyme substrate. The 5-FU ELISA assay signal (OD450) decreased proportionally to the increasing concentration of 5-FU. The 5-FU IC50 and tegafur cross-reactivity were determined as in the previous section. […]

[2] = Indirect antibody ELISA, cross-reactivity with tegafur; settings: (IC50 for 5-FU/IC50 for testing chemical)%
Protocol: as §1, with “BSA conjugated with 5-FU (5-FU-BSA) was concentrated and stored in the same phosphate buffer (pH 7.8).” left out
as §2, with “The 5-FU ELISA assay signal (OD450) decreased proportionally to the increasing concentration of 5-FU.” left out
In addition to tegafur, several 5-FU structurally related chemicals were also evaluated for their cross-reactivity to the antibodies generated with 5-FU conjugate with the 3-carbon linker and were summarized below in Table 3. […]

[3] = Indirect antibody ELISA, cross-reactivity with DH-5-FU; settings: Table 3; (IC50 for 5-FU/IC50 for testing chemical)%
Excerpt: (§3) This indirect antibody ELISA assay 5-FU assay was constructed using either 1-3C-5-FU-BSA or 1-5C-5-FU-BSA as antibody capture reagent and a horseradish perioxidase (HRP) conjugated goat anti-mouse antibody as the antibody detector reagent. The binding of 5-FU antibody was detected with 3,3,5,5-TetraMethylBenzidine (TMB) as the HRP enzyme substrate. The 5-FU ELISA assay signal (OD450) decreased proportionally to the increasing concentration of 5-FU. The 5-FU IC50 and tegafur cross-reactivity were determined as in the previous section.
(§4) In addition to tegafur, several 5-FU structurally related chemicals were also evaluated for their cross-reactivity to the antibodies generated with 5-FU conjugate with the 3-carbon linker and were summarized below in Table 3. […] However, antibody 36H11 was highly specific for 5-FU and was detected for about 12% or lower cross-reactivity with tegafur.

[4] = Indirect antibody ELISA, cross-reactivity with uracil; settings: Table 3; (IC50 for 5-FU/IC50 for testing chemical)%
Excerpt: as §3, §4

[5] = Indirect antibody ELISA, cross-reactivity with cytosine; settings: Table 3; (IC50 for 5-FU/IC50 for testing chemical)%
Excerpt: as §3, §4

[6] = Indirect antibody ELISA, cross-reactivity with thymine; settings: Table 3; (IC50 for 5-FU/IC50 for testing chemical)%
Excerpt: as §3, §4

[7] = Hybridoma supernatant competition test in ECL bridging assay; settings: hybridoma culture supernatant; signal decreased in the presence of low level of 5-FU
Protocol: Hybridomas were screened between days 10-14 for the secretion of 5-FU antibody by the 5-FU antibody assay (Bridging-assay) described before. 25 μL of culture supernatant were transferred to an assay plate and mixed with 50 μL of 5-FU antibody assay master mix containing 100 ng/mL of each Bi-1-3C-5-FU-BSA and TAG Plus 1-3C-5-FU-BSA in 200 μg/mL of M280-SA beads. Samples were incubated for 30 minutes with shaking. Beads were recovered and resuspended in 150 μL of DILUENT and read in an M384 analyzer with 100 μL draw volume. Hybridomas identified from plates with greater than 20% of growing wells were re-cloned by limiting dilution in 96-well plate at 0.3 and 1.0 cells/well.
5-FU antibody specificity and cross-reactivity was tested on hybridomas that were identified as positive for 5-FU binding. […]
Typically, 25 μL of culture supernatant were mixed with 50 μL of 5-FU assay master mix containing 100 ng/mL of each Bi-1-3C-5-FU-BSA and TAG Plus 1-3C-5-FU-BSA in 200 μg/mL of M280-SA beads with or without competing chemicals. […] Beads were recovered and resuspended in 150 μL of DILUENT and read in an M384 analyzer with 100 μL draw volume.
X_RCT=cross-reactivity (calculated 5-FU concentration/10 μg/mL).

[8] = ECL assay with TAG Plus mAb as detector and position-3 modified 5-FU capture reagent; settings: Bi-3-5C-5-FU-HSA pre-bound M280-SA beads
Protocol: Unless otherwise specifically mentioned, a 5-FU immunoassay was set up by mixing the same volumes of sample with capture reagent first and then with detector reagent in a 96 well plate. After adding reagents, samples were mixed for 5 minutes at room temperature with shaking. After the incubation, beads were recovered by attaching a plate magnet to the assay plate for 2 minutes and resuspending in 150 μL of DILUENT. Samples were either read in an M384 or an M1MR analyzer with 100 μL draw volume under the 96 standard round plate protocol.
The performance of TAG Plus conjugated antibody 61C6 as an assay detector reagent was studied. Assay performance was evaluated in 5-FU Antibody Screening Buffer with a 5-fold 5-FU serial dilution curve from 150 μg/mL to 9.6 ng/mL as 5-FU calibrators (samples).
A total of 5 capture reagents were evaluated in this experiment. Three capture reagents were 5-FU bound to M280-SA beads through biotinylated BSA including Bi-1-3C-5-FU-BSA, Bi-1-5C-5-FU-BSA and Bi-3-5C-5-FU-HSA pre-bound to M280-SA beads at the ratio of 1.0 μg capture reagent per mg beads (200 μg/mL). […]
The assay detector reagent used was TAG Plus 5-FU mAb 61C6 at the concentration of 2.0 μg/mL. […] The plate was read in an M384 ECL Analyzer with a draw volume of 100 μL under 96 standard plate protocol. […]

B1: mAb 61C6: monoclonal anti-5-FU antibody, IgG2b κ; heavy chain SEQ ID NO:2, light chain SEQ ID NO:6; from 3-carbon linker immunogen (antibody, listed as Mus musculus)
heavy: MDWLWNLLFLMAAAQSIQAQIQLVQSGPELKKPGETVTISCKASGYTLTNYGMNWVKQAPGKGLKWMGWINTNSGEPTYVEEFKGRFAFSLETSVSTVYLQISDLKHEDTATYFCARWGPHFNAYGWFAYWGQGTLVTVSAAKTTPPSVYPLAPGCGDTTGSSVTLGCLVKGYFPESVTVTWNSGSLSSSVHTFPALLQSGLYTMSSSVTVPSSTWPSQTVTCSVAHPASSTTVDKKLEPSGPISTINPCPPCKECHKCPAPNLEGGPSVFIFPPNIKDVLMISLTPKVTCVVVDVSEDDPDVQISWFVNNVEVHTAQTQTHREDYNSTIRVVSTLPIQHQDWMSGKEFKCKVNNKDLPSPIERTISKIKGLVRAPQVYILPPPAEQLSRKDVSLTCLVVGFNPGDISVEWTSNGHTEENYKDTAPVLDSDGSYFIYSKLNMKTSKWEKTDSFSCNVRHEGLKNYYLKKTISRSPGK
light: MMSSAQFLGLLLLCFQGTRCYIQMTQTASSLSASLGDRVTISCRASQDIWNYLNWYQQKPDGTIKLLIYYKSRLHSGVPSRFSGSGSGIDFSLTISNLEQEDFATYFCQQGHTLPWTFGGGSKLEIKRADAAPTVSIFPPSSEQLTSGGASVVCFLNNFYPKDINVKWKIDGSERQNGVLNSWTDQDSKDSTYSMSSTLTLTKDEYERHNSYTCEATHKTSTSPIVKSFNRNEC
notes: monoclonal anti-5-FU antibody, IgG2b κ; from 3-carbon linker immunogen
- Cross-reactivity 5-FU ([1]; Table 3, (IC50 for 5-FU/IC50 for testing chemical)%, reference): 100%
- Ratio of IC50 on 5-FU Conjugates with 5-carbon Linker vs. 3-carbon Linker ([1]; indirect ELISA, 5-FU IC50 on 5-carbon vs 3-carbon linker 5-FU conjugate): 4.7
- Cross-reactivity Tegafur ([2]; Table 3): 28%
- Tegafur Cross-reactivity** ([2]; indirect ELISA): 28%
- Cross-reactivity DH-5-FU [3]: 1.4%
- Cross-reactivity Uracil [4]: 1.4%
- Cross-reactivity Cytosine [5]: 0.57%
- Cross-reactivity Thymine [6]: Undetectble
- specificity to 5-FU [7]: better specificity to 5-FU
- reactivity with position 3 modified 5-FU (3-5C-5-FU-HSA) capture reagent [8]: reactive
